This passage reports stoichiometry N results from PMC4742998.

For the test, the target named is complement component 9 (C9) (human). In words: cryo-EM structure; monomeric C9 polymerised in solution by overnight incubation at 1 mg/ml and 37 °C; single-particle cryo-EM of soluble poly-C9, 22-fold symmetry applied during refinement, about 5,000 particles, 8 Å.

As a reminder, the stoichiometry N is the number of molecules, sites or subunits per partner or assembly.

In the case of “complement component 9 (C9) (natural protein)”, the stoichiometry N was 22.
